Earlier results, collected in article PMC7915401.
Like-named read-outs stand apart in the source and are kept apart here.

Columns and labels:
CD200R1 (Homo sapiens) [1] = biological target: CD200R1 (Homo sapiens) (UniProt Q8TD46)
CD200R1 (Homo sapiens) [2] = biological target: CD200R1 (Homo sapiens) (UniProt Q8TD46); remark: listed apart in the source

Sequence of UniProt Q8TD46 (Q8TD46 25-265): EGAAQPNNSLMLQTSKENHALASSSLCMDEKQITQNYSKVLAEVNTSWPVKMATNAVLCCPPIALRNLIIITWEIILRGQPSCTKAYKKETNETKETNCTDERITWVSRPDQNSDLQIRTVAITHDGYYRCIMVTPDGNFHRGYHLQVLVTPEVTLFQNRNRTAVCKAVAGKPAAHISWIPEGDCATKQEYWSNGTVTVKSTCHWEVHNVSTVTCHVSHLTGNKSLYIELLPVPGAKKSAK

| Substance | Kd (CD200R1 (Homo sapiens) [1]) [µM] | Kd (CD200R1 (Homo sapiens) [2]) [µM] |
| --- | --- | --- |
| CD200 (from UniProt P41217) | 0.5 |  |
| K14 (vOX2) (from UniProt P0C788) |  | 0.5 |
